Results: patent US20100279930A1 (published 2010)

biological target: T1, human Y4 receptor (human, UniProt P50391 1-375); assay: 125I-PP displacement
T1 sequence (P50391 whole entry): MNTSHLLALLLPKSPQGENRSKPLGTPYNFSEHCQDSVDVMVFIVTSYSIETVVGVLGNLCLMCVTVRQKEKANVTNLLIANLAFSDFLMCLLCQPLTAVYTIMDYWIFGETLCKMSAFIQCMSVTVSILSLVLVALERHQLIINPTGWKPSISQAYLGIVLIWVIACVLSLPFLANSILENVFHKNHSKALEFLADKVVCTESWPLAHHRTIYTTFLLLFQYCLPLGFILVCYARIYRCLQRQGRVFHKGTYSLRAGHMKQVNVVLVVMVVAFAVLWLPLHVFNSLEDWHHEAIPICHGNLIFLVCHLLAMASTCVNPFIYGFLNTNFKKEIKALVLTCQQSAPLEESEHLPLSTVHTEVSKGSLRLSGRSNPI

Binder	IC50 [nM]
PAPLEPVYPGDNATPEQIAKYAADLRRYINKLTRPRY [4057144]	0.083
PAPLEPHYPGDNATPEQMAKYAADLRRYINKLTRPRY [4057231]	0.049
AAPLEPEYPGDDATPQQMAHYAAELRRYINKLTRPRY [4057141]	0.114
HAPLEPEYPGDDATPQQMARYAAELRRYINKLTRPRY [4057137]	0.092

biological target: T1, human Y4 receptor; assay: 125I-PP displacement; remark: another data set of the same source

Binder	IC50 [nM]
PAPLEPHYPGDNATPEEMAKYAAELRRYIDKLTRPRY [4060687]	0.171
GAPLEPVYPGDNATPEQKAKYAAELRRYIDHLTRPRY [4061086]	0.213
AAPLEPKYPGDNATPEQLAKYAAELRRYIDKLTRPRY [4060696]	0.151
GAPLEPTYPGDDATPEQLAKYAAELRRYINHLTRPRY [4060308]	0.117
GAPLEPVYPGDNATPEQKAKYAAELRRYIDRLTRPRY [4061090]	0.1
GAPLEPEAPGDNATPEQMAKYYSELRRYIDKLTRPRY [4060693]	0.172
GAPLEPVYPGDNATPEQMARYYSELRRYIDKLTRPRY [4060604]	0.121
GAPLEPVAPGDNATPEQMARYYSELRRYIDKLTRPRY [4060690]	0.171
GAPLEPVYPGDNATPEQKAKYAAELRRYIDKLTRPRY [4061084]	0.174
PAPLEPEYPGDNATPEQKAKYAAALRRYINRLTRPRY [4060278]	0.062
PAPLEPVYPGDNATPEQKAKYAAELRRYIDKLTRPRY [4061085]	0.159
PAPLEPTYPGDNATPEQKAKYAAELRRYIDKLTRPRY [4061081]	0.21
PAPLEPKYPGDNATPEQLAKYAAELRRYIDKLTRPRY [4060893]	0.11
GAPLEPVYPGDNATPEQLAKYAAELRRYIDKLTRPRY [4060897]	0.137
PAPLEPVYPGDNATPEQKAKYAAELRRYIDHLTRPRY [4061087]	0.218
PAPLEPVYPGDNATPEQKAKYAAELRRYIDRLTRPRY [4061091]	0.107
PAPLEPEYPGDNATPEQKAKYAAALRRYINHLTRPRY [4060275]	0.106
PLEPVYPGDNATPEQLAKYAAELRRYIDKLTRPRY [4060899]	0.153
GAPLEPEYPGDNATPEQLARYAAALRRYINKLTRPRY [4060356]	0.091

Binder	IC50 [nM]
GAPLEPEYPGDNATPEQKARYAAALRRYINKLTRPRY [4060309]	0.046
AAPLEPTYPGDNATPEQMARYAAALRRYIDKLTRPRY [4060695]	0.091
GAPLEPEYPGDNATPEQMARYAAALRRYINHLTRPRY [4060358]	0.08
GAPLEPEYPGDDATPEQKARYAAALRRYINKLTRPRY [4060311]	0.099
GAPLEPEYPGDNATPEQKAKYAAALRRYIDKLTRPRY [4060601]	0.088
AAPLEPTAPGDNATPEQMARYAAALRRYINKLTRPRY [4060694]	0.079
GAPLEPEYPGDNATPEQKAKYAAALRRYINRLTRPRY [4060301]	0.036
GAPLEPEYPGDNATPEEMARYAAALRRYINKLTRPRY [4060359]	0.099
GAPLEPEYPGDDATPEQKARYAAALRRYINHLTRPRY [4060312]	0.101
GAPLEPEYPGDNATPEQMAKYAAALRRYIDKLTRPRY [4060896]	0.114
YAPLEPEYPGDDATPQQKARYAAELRRYIDKLTRPRY [4060682]	0.131
YAPLEPEAPGDDATPQQKARYAAELRRYINKLTRPRY [4060681]	0.136
GAPLEPEYPGDDATPQQKARYAAELRRYINKLTRPRY [4060684]	0.076
PAPLEPEYPGDDATPQQKARYAAELRRYINKLTRPRY [4060685]	0.065
AAPLEPEYPGDDATPQQKARYAAELRRYINKLTRPRY [4060686]	0.055
PAPLEPTYPGDNATPEQKAKYYSELRRYINKLTRPRY [4060280]	0.064
PAPLEPTYPGDNATPEQLAKYYSELRRYINRLTRPRY [4060277]	0.076
GAPLEPTYPGDNATPEQLAKYYSELRRYINRLTRPRY [4060276]	0.073
PAPLEPKYPGDNATPEEMAKYYSELRRYIDKLTRPRY [4060894]	0.126

Binder	IC50 [nM]
PAPLEPTYPGDNATPEQLAKYYSELRRYINKLTRPRF [4060284]	0.055
PAPLEPHYPGDNATPEEMAKYYSELRRYIDKLTRPRY [4060895]	0.121
GAPLEPTYPGDNATPEQKAKYYSELRRYINKLTRPRY [4060279]	0.067
GAPLEPTYPGDDATPEQLAKYYSELRRYINKLTRPRY [4060313]	0.097
GAPLEPTYPGDNATPEQKAKYAAELRRYIDKLTRPRY [4061080]	0.105
GAPLEPTYPGDNATPEELAKYYSELRRYINKLTRPRY [4060315]	0.097
YAPLEPTYPGDNATPEQKAKYAAELRRYIDKLTRPRY [4061083]	0.124
PAPLEPTYPGDDATPEQLAKYYSELRRYINKLTRPRY [4060314]	0.084
PAPLEPKYPGDNATPEQLAKYYSELRRYIDKLTRPRY [4060605]	0.14
PAPLEPTYPGDNATPEELAKYYSELRRYINKLTRPRY [4060316]	0.101
PAPLEPKYPGDNATPEQMAKYYSELRRYIDHLTRPRY [4060602]	0.173
AAPLEPTYPGDNATPEQKAKYAAELRRYIDKLTRPRY [4061082]	0.158
GAPLEPTYPGDNATPEQLAKYYSELRRYINKLTRPRF [4060283]	0.073
GAPLEPTYPGDDATPEQLAKYYSELRRYINHLTRPRY [4060306]	0.098
GAPLEPEAPGDNATPEQMAKYYSELRRYINKLTRPRY [4060691]	0.153
PAPLEPKYPGDNATPEQMAKYYSELRRYIDRLTRPRY [4060603]	0.102
GAPLEPTYPGDNATPEQLAKYYSELRRYIDKLTRPRY [4060606]	0.131
PAPLEPKAPGDNATPEQMAKYYSELRRYIDKLTRPRY [4060680]	0.109
